This note sets out measurements from patent US20210347873A1 (SHANGHAI PHARMAEXPLORER, published 2021).

Assay [1] addresses T1, biotinylated hBLyS-ECD (human, UniProt Q9Y275 134-285, biotinylated with Biotin-X-X-NHS (molar ratio 7:1); sites not stated).
T1 construct: also called biotinylated immunogen; biotinylated hBLvS-ECD
Nature of the assay: ELISA on captured biotinylated hBLyS-ECD; antibody 13.3 nM.

Assay [2] deals with T1, biotinylated hBLyS-ECD. Put plainly: ELISA on captured biotinylated hBLyS-ECD; antibody 2.67 nM.
In assay [3] the target is T1, biotinylated hBLyS-ECD. Put plainly: ELISA on captured biotinylated hBLyS-ECD; antibody 66.7 nM.
Assay [4] deals with T1, biotinylated hBLyS-ECD. Nature of the assay: ELISA on captured biotinylated hBLyS-ECD; antibody 0.107 nM.
The target of assay [5] is T1, biotinylated hBLyS-ECD. Nature of the assay: ELISA on captured biotinylated hBLyS-ECD; antibody 0.534 nM.
For assay [6], the target named is T1, biotinylated hBLyS-ECD. Nature of the assay: ELISA on captured biotinylated hBLyS-ECD; antibody 0.0213 nM.
For assay [7], the target named is T1, biotinylated hBLyS-ECD. Nature of the assay: ELISA on captured biotinylated hBLyS-ECD; antibody 0.00427 nM.
Assay [8] deals with T1, biotinylated hBLyS-ECD. Nature of the assay: ELISA on captured biotinylated hBLyS-ECD; antibody 0 nM (background).
The target in assay [9] is T2, extracellular domain of human BLyS protein (hBLyS-ECD), His-tagged, Ala134-Leu285 (human, UniProt Q9Y275 134-285).
T2 construct: Expressed in HEK293 cells and purified on a Ni column; also called immunogen
T2 sequence (Q9Y275 134-285): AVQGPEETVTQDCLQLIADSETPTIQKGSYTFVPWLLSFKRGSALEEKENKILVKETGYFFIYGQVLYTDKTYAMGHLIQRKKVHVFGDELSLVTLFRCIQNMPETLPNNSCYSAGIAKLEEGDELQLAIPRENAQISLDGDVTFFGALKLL
Put plainly: SPR (Biacore), antibody captured by anti-human Fc, hBLyS-ECD as analyte. How it is done: Affinity constants were determined using a Biacore X100 instrument (purchased from GE Healthcare). Detailed operations and methods referred to the instrument manuals and detailed methods provided by manufacturers, specifically: determining affinity constant using a CM5 chip (Sensor Chip CM5, purchased from GE Healthcare). […] Then 1 M ethanolamine was injected in chip to block the remaining activation sites. After the antibody to be tested (i.e., the human BLyS antibody prepared by Embodiment 2) was captured by chip, 7 different gradient of immunogen dilutions (i.e., hBLyS-ECD) prepared by Embodiment 1 were injected and the binding and dissociation of antigen with antibody was detected by a Biacore instrument. The dissociation constant and binding constant were then fitted by Biacore X100 Evaluation Software 2.0, while the affinity constant was the ratio of dissociation constant to binding constant.
The binding and dissociation between antibody and antigen was detected by Biacore.

For assay [10], the target named is T1, biotinylated hBLyS-ECD. Nature of the assay: BAFF R-coated ELISA, biotinylated hBLyS-ECD bound in presence of antibody 0 nM.
In assay [11] the target is T1, biotinylated hBLyS-ECD. Put plainly: BAFF R-coated ELISA, biotinylated hBLyS-ECD bound in presence of antibody 4 nM.
Assay [12] has as its target T1, biotinylated hBLyS-ECD. Put plainly: BAFF R-coated ELISA, biotinylated hBLyS-ECD bound in presence of antibody 20 nM.
Assay [13] has as its target T1, biotinylated hBLyS-ECD. Nature of the assay: BAFF R-coated ELISA, biotinylated hBLyS-ECD bound in presence of antibody 0.8 nM.
Assay [14] has as its target T1, biotinylated hBLyS-ECD. Put plainly: BAFF R-coated ELISA, biotinylated hBLyS-ECD bound in presence of antibody 100 nM.
In assay [15] the target is T1, biotinylated hBLyS-ECD. Put plainly: BAFF R-coated ELISA, biotinylated hBLyS-ECD bound in presence of antibody 0.16 nM.
Assay [16] has as its target T1, biotinylated hBLyS-ECD. Nature of the assay: BAFF R-coated ELISA, biotinylated hBLyS-ECD bound in presence of antibody 0.032 nM.
The target in assay [17] is T1, biotinylated hBLyS-ECD. Put plainly: BAFF R-coated ELISA, biotinylated hBLyS-ECD bound in presence of antibody 0.0064 nM.
The target in assay [18] is T2, extracellular domain of human BLyS …. Put plainly: cell-based or functional assay.
For assay [19] the target is unchanged. Nature of the assay: SPR (Biacore), antibody captured by anti-human Fc, hBLyS-ECD as analyte. The source holds these as a separate data set.

Like-named read-outs stand apart in the source and are kept apart here.

T1 sequence (Q9Y275 134-285): as above

B1: h8E7D9C7F5-1 (antibody, V domains shown)
VH: EVQLVQSGAEVKKPGASVKVSCKASGYTFTSYGISWVRQAPGQGLEWMGEIYPRSGNTYYNEKFKGRVTMTTDTSTSTAYMELRSLRSDDTAVYYCARSGPITTLVATDYGMDYWGQGTTVTVSS
VL: DIVMTQSPDSLAVSLGERATINCRASKSVSTSSYSYMHWYQQKPGQPPKLLIKFASNLESGVPDRFSGSGSGTDFTLTISSLQAEDVAVYYCQHSREFPYTFGGGTKVEIK
notes: Humanized antibody; also called humanized BLyS antibody h8E7D9C7F5 variant 1 (VH.1 / Vk.1)
Take B1: the OD450 nm with biotinylated hBLyS-ECD [1] is 2.2 OD450 nm; with biotinylated hBLyS-ECD [2], 2.18 OD450 nm; with biotinylated hBLyS-ECD [3] it was 2.3 OD450 nm; in the assay with biotinylated hBLyS-ECD [4] it was 1.35 OD450 nm; with biotinylated hBLyS-ECD [5], 1.88 OD450 nm; with biotinylated hBLyS-ECD [6], 0.499 OD450 nm. Besides, the OD450 nm is 0.195 OD450 nm with biotinylated hBLyS-ECD [7]; 0.129 OD450 nm with biotinylated hBLyS-ECD [8]; 2.05 OD450 nm with biotinylated hBLyS-ECD [10]; 1.11 OD450 nm with biotinylated hBLyS-ECD [11]; 0.721 OD450 nm with biotinylated hBLyS-ECD [12]; 1.54 OD450 nm in the assay with biotinylated hBLyS-ECD [13]. Also, the OD450 nm worked out at 0.45 OD450 nm in the assay with biotinylated hBLyS-ECD [14], 1.78 OD450 nm with biotinylated hBLyS-ECD [15], 1.87 OD450 nm in the assay with biotinylated hBLyS-ECD [16] and 1.98 OD450 nm in the assay with biotinylated hBLyS-ECD [17]. In addition, the Kd in assay [9] amounted to 4.33 nM. This molecule also returned a koff in assay [9] of 0.000942 s⁻¹. For the same molecule, the kon in assay [9] is 218000 M⁻¹ s⁻¹.

B2: c35E6F7C3 (antibody, V domains shown)
VH: EVQLQQSGAELVKPGASVKLSCTAAGFNIQDTYIHWVKQRPEQGLEWIGRIDPANANTVYDPKFQGKATITADTSSNTAYLQVSSLTSEDTAVYYCASPVITAGFAYWGQGTLVTVSA
VL: QIVLTQSPAIMSASPGEKVTMTCGASSSVNYVHWYQQKSGTSPKRWIYDTSKLASGVPARFSGSGSGTSYSLTISSMEAEDAATYYCQQWTRSPLTFGAGTKVELK
As to B2, the “Proportion of B lymphocytes in splenocytes (%), in vivo in mice” value in assay [18] was 30.5%. Moreover, in assay [19], binding was characterised by a dissociation constant (Kd) of 1.45 nM, the koff was 0.000277 s⁻¹ and the kon was found to be 190000 M⁻¹ s⁻¹.

B3: 2-1G11 (antibody, V domains shown)
VH: EVQLVESRGGVVQPGRSLRLSCAASGFTFSSYGMHWVRQAPGKGLEWVAVISYDGSNKYYADSVKGRFTISRDNSKNTLYLQMNSLRAEDAAVYYCARDRVDILTGYSIYGMDVWGQGTTVTVSS
VL: EIVMTQSPATLSLSPGERATLSCRASQSVSSYLAWYQQKPGQAPRLLIYDASKRATGIPARFSGSGSGTDFTLTISSLEPEDFAVYYCQQRSNWPLTFGGGTKVEIK
With B3, the “Proportion of B lymphocytes in splenocytes (%), in vivo in mice” value in assay [18] worked out at 25.6%.

B4: h97A3C2H4-9 (antibody, V domains shown)
VH: EVQLVESGGGLVQPGGSLRLSCAASGFTFSTYTMSWVRQAPGKRLEWVAYISYGGGSTSYPDTVKGRFTISRDNAKNSLYLQMNSLRAEDTAVYYCTRHVTVVENSMDYWGQGTTVTVSS
VL: DILLTQSPDFQSVTPKEKVTITCRASQSIGTSIHWYQQKTDQSPKLLIKYVSESFSGTPSRFSGSGSGTDFTLTINSLEAEDAATYYCQQTHSWPWTFGGGTKVEIK
notes: Humanized antibody; VH3-7/JH6 CDR-grafted with A93T, G44R; also called humanized BLyS antibody h97A3C2H4 variant 9 (VH.1b / Vk.1d)
On to B4, for which the OD450 nm is 2.27 OD450 nm with biotinylated hBLyS-ECD [1]; 2.24 OD450 nm with biotinylated hBLyS-ECD [2]; 2.37 OD450 nm with biotinylated hBLyS-ECD [3]; 1.02 OD450 nm with biotinylated hBLyS-ECD [4]; 1.88 OD450 nm in the assay with biotinylated hBLyS-ECD [5]; 0.372 OD450 nm in the assay with biotinylated hBLyS-ECD [6]. The OD450 nm is 0.179 OD450 nm with biotinylated hBLyS-ECD [7]; 0.198 OD450 nm with biotinylated hBLyS-ECD [8]; 1.94 OD450 nm with biotinylated hBLyS-ECD [10]; 1.13 OD450 nm in the assay with biotinylated hBLyS-ECD [11]; 0.748 OD450 nm with biotinylated hBLyS-ECD [12]; 1.56 OD450 nm with biotinylated hBLyS-ECD [13]. Besides, the OD450 nm with biotinylated hBLyS-ECD [14] was determined as 0.506 OD450 nm; with biotinylated hBLyS-ECD [15], 1.81 OD450 nm; with biotinylated hBLyS-ECD [16], 1.98 OD450 nm; with biotinylated hBLyS-ECD [17], 1.96 OD450 nm. The same molecule registered a Kd in assay [9] of 1.88 nM. For the same molecule, the koff in assay [9] came out at 0.000216 s⁻¹. In assay [9], the kon was 115000 M⁻¹ s⁻¹.
